Biological target: rhBMP-2 (R&D Systems, Item number 355-BM/CF) (human) (UniProt P12643)
Assay: retention test: peptide-free EDC/NHS crosslinked collagen disc loaded with 40 micrograms rhBMP-2, spun, unbound rhBMP-2 in supernatant by ELISA; control for the affinity biomatrix

rhBMP-2 (R&D Systems, Item number 355-BM/CF) (human), sequence (P12643 283-396 limits assumed): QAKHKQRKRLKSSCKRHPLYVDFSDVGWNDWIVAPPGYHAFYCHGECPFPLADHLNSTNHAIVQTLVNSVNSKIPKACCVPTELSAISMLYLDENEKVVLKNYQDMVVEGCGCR

## affinity peptide-free EDC/NHS crosslinked collagen disc (6 mm diameter)
  % rhBMP-2 incorporation: 40 % by weight
